Changes are numbered by the printed parent chain.
B1: 583 (protein)
chain: LDNGLARTPTMGWLHWERFMCNLDCQEEPDSCISEKLFMEMAERMVSEGWKDAGYEYLCIDDCWMAPQRDSEGRLQADPQRFPHGIRQLANHVHSKGLKLGIYADVGNKTCAGFPGSFGYYDIDAQTFADWGVDLLKFDGCYCDSLENLADGYKHMSLALNRTGRSIVYSCEWPLYMWPFQKPNYTEIRQYCNHWRNFADIDDSWASIKAILDWTSRNQERIVDVAGPGGWNDPDMLVIGNFGLSWDQQVTQMALWAIMAAPLFMSNDLRHISPQAKALLQDKDVIAINQDPLGKQGYQLRKGDNFEVWERPLSGDAWAVAIINRQEIGGPRSYTIPVASLGKGVACNPTCFITQLLPVKRQLGFYNWTSRLKSHINPTGTVLLQLENTMQMSLKDLL
modifications: Synthetic Polypeptide sequence of Variant No. 583 of mature Human GLA
B2: 585 (protein)
chain: B1 chain with A210K, T350A
modifications: Synthetic Polypeptide sequence of Variant No. 585 of mature Human GLA
B3: 588 (protein)
chain: B1 chain with K96A, A210S, T350A
modifications: Synthetic Polypeptide sequence of Variant No. 588 of mature Human GLA
B4: 592 (protein)
chain: B1 chain with R189V, A210S, T350A
modifications: Synthetic Polypeptide sequence of Variant No. 592 of mature Human GLA
B5: 587 (protein)
chain: B1 chain with A210R, T350A
modifications: Synthetic Polypeptide sequence of Variant No. 587 of mature Human GLA
B6: 590 (protein)
chain: B1 chain with P179M, A210S, T350A
modifications: Synthetic Polypeptide sequence of Variant No. 590 of mature Human GLA
B7: 586 (protein)
chain: B1 chain with A210N, T350A
modifications: Synthetic Polypeptide sequence of Variant No. 586 of mature Human GLA
B8: 589 (protein)
chain: B1 chain with K96W, A210S, T350A
modifications: Synthetic Polypeptide sequence of Variant No. 589 of mature Human GLA
B9: 520 (protein)
chain: B1 chain with A77S, A210S, T350A
modifications: Synthetic Polypeptide sequence of Variant No. 520 of mature Human GLA
B10: 591 (protein)
chain: B1 chain with R189K, A210S, T350A
modifications: Synthetic Polypeptide sequence of Variant No. 591 of mature Human GLA
B11: 584 (protein)
chain: B1 chain with A210E, T350A
modifications: Synthetic Polypeptide sequence of Variant No. 584 of mature Human GLA
B12: 593 (protein)
chain: B1 chain with S95A, A210S, T350A
modifications: Synthetic Polypeptide sequence of Variant No. 593 of mature Human GLA

assay: HTP-analysis of supernatants pretreated with base (MUGal hydrolysis); type: biochemical; settings: activity of the variant/activity of Rd3BB (SEQ ID NO: 13); challenge at pH 9.7
Procedure, shortened: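 GLA variants secreted from yeast INVSc1; culture supernatants pre-incubated with McIlvaine buffer pH 7.0–8.2 or 200 mM bicarbonate pH 9.1–9.7 at 37° C. for 1–18 h. Residual activity: MUGal (4 mM stock) hydrolysis at pH 4.3–4.8, 37° C., 30–180 min, carbonate quench; fluorescence Ex 355/Em 448 nm.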

Molecule | Relative Activity of GLA Variants After Challenge at pH 9.7
B1 | ++ (++ = >5 to 10 relative activity over Rd3BB (SEQ ID NO: 13))
B2 | ++ (++ = >5 to 10 relative activity over Rd3BB (SEQ ID NO: 13))
B3 | + (+ = 1.5 to 5 relative activity over Rd3BB (SEQ ID NO: 13))
B4 | ++ (++ = >5 to 10 relative activity over Rd3BB (SEQ ID NO: 13))
B5 | ++ (++ = >5 to 10 relative activity over Rd3BB (SEQ ID NO: 13))
B6 | + (+ = 1.5 to 5 relative activity over Rd3BB (SEQ ID NO: 13))
B7 | ++ (++ = >5 to 10 relative activity over Rd3BB (SEQ ID NO: 13))
B8 | + (+ = 1.5 to 5 relative activity over Rd3BB (SEQ ID NO: 13))
B9 | + (+ = 1.5 to 5 relative activity over Rd3BB (SEQ ID NO: 13))
B10 | ++ (++ = >5 to 10 relative activity over Rd3BB (SEQ ID NO: 13))
B11 | ++ (++ = >5 to 10 relative activity over Rd3BB (SEQ ID NO: 13))
B12 | ++ (++ = >5 to 10 relative activity over Rd3BB (SEQ ID NO: 13))

assay: HTP-analysis of supernatants pretreated with acid (MUGal hydrolysis); type: biochemical; settings: activity of the variant/activity of Rd3BB (SEQ ID NO: 13); challenge at pH 3.7
Procedure, shortened: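 Fluorescence of MUGal hydrolysis (Ex. 355 nm, Em. 448 nm) is read after sodium carbonate quench. The enzyme source is INVSc1 yeast culture supernatant, first exposed to pH 3.3-4.3 McIlvaine buffer at 37° C. for 1-3 h, then reacted at pH 4.8 for 30-180 minutes.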

Molecule | Relative Activity of GLA Variants After Challenge at pH 3.7
B1 | + (+ = 1.5 to 5 relative activity over Rd3BB (SEQ ID NO: 13))
B2 | + (+ = 1.5 to 5 relative activity over Rd3BB (SEQ ID NO: 13))
B3 | + (+ = 1.5 to 5 relative activity over Rd3BB (SEQ ID NO: 13))
B4 | + (+ = 1.5 to 5 relative activity over Rd3BB (SEQ ID NO: 13))
B5 | + (+ = 1.5 to 5 relative activity over Rd3BB (SEQ ID NO: 13))
B6 | + (+ = 1.5 to 5 relative activity over Rd3BB (SEQ ID NO: 13))
B7 | ++ (++ = >5 to 10 relative activity over Rd3BB (SEQ ID NO: 13))
B8 | + (+ = 1.5 to 5 relative activity over Rd3BB (SEQ ID NO: 13))
B9 | + (+ = 1.5 to 5 relative activity over Rd3BB (SEQ ID NO: 13))
B10 | + (+ = 1.5 to 5 relative activity over Rd3BB (SEQ ID NO: 13))
B11 | + (+ = 1.5 to 5 relative activity over Rd3BB (SEQ ID NO: 13))
B12 | + (+ = 1.5 to 5 relative activity over Rd3BB (SEQ ID NO: 13))

assay: HTP-analysis of yeast culture supernatants, no challenge (MUGal hydrolysis); type: biochemical; settings: activity of the variant/activity of Rd3BB (SEQ ID NO: 13)
Procedure, shortened: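 GLA variants expressed in yeast INVSc1, secreted into SD-Ura broth over 66-84 h at 30° C; clarified supernatants tested without challenge. Supernatant mixed with McIlvaine buffer pH 4.8 and 2 mM MUGal (citrate/KCl, pH 4.6), 37° C for 30-180 min, carbonate-quenched, fluorescence Ex 355/Em 448 nm.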

Molecule | Relative Activity of GLA Variants After No Challenge (NC)
B1 | + (+ = 1.5 to 5 relative activity over Rd3BB (SEQ ID NO: 13))
B2 | + (+ = 1.5 to 5 relative activity over Rd3BB (SEQ ID NO: 13))
B3 | + (+ = 1.5 to 5 relative activity over Rd3BB (SEQ ID NO: 13))
B4 | + (+ = 1.5 to 5 relative activity over Rd3BB (SEQ ID NO: 13))
B5 | + (+ = 1.5 to 5 relative activity over Rd3BB (SEQ ID NO: 13))
B6 | + (+ = 1.5 to 5 relative activity over Rd3BB (SEQ ID NO: 13))
B7 | + (+ = 1.5 to 5 relative activity over Rd3BB (SEQ ID NO: 13))
B8 | + (+ = 1.5 to 5 relative activity over Rd3BB (SEQ ID NO: 13))
B9 | + (+ = 1.5 to 5 relative activity over Rd3BB (SEQ ID NO: 13))
B10 | + (+ = 1.5 to 5 relative activity over Rd3BB (SEQ ID NO: 13))
B11 | + (+ = 1.5 to 5 relative activity over Rd3BB (SEQ ID NO: 13))
B12 | + (+ = 1.5 to 5 relative activity over Rd3BB (SEQ ID NO: 13))

Reference: patent US11278600B2, “Human alpha-galactosidase variants” (Codexis, Inc., priority 2014, dated 2022)
